Reference: a protein production outcome set (Wang et al. 2014)

Assay: label from the status in PepcDB records

| Sequence | protein production |
| --- | --- |
| MYKLMIADDEPLIRRGIKQLIDLSSLQIGEIYEASTGEEALKVFEEFKPEIVLMDINMPKIDGLSVAKKIKSINPDTKIAIITGYNYFDYAQTAIKIGVEDYILKPISKSDVSEIIVKLVSSLQKERKDKEIEKVLEKITTVDTQDNIAKNNYKELIQNIIEESYTDSQFTLSVLSEKLDLSSGYLSIMFKKNFGIPFQDYLLQKRMEKAKLLLLTTELKNYEIAEQVGFEDVNYFITKFKKYYQITPKQYREMVLKNENE | not failed |
| MRILLATDGSPQARGAEALAEWLAYKLSAPLTVLFVVDTRLARIPELLDFGALTVPVPVLRTELERALALRGEAVLERVRQSALAAGVAVEAVLEEGVPHEAILRRARAADLLVLGRSGEAHGDGFGGLGSTADRVLRASPVPVLLAPGEPVELEGALLGYDASESAVRALHALAPLARALGLGVRVVSVHEDPARAEAWALEAEAYLRDHGVEASALVLGGDAADHLLRLQGPGDLLALGAPVRRLVFGSTAERVIRNAQGPVLTAR | failed |
| MIAMVNDGGLALDRPTAAAIVGLFAGSMYLMTVFGGWVADNWLGQARAIWYGSIIIALGHLSIALTSVFDQSFFYLGLVLIVLGTGLFKTCISVIVGTLYKANDARRDAGFSIFYMGINMGSFIAPLITGLLAKDHGWHLGFGIGGIGMLIALLIFRFMAMPQLQTFNELRQEANSCSKPVVENKNAPKIVFSFLFAVAVVIALTFLGIIHINPVAVATYLTVGISIGIIAYFAYLLLFLNLEQHEKFKIIICFVLLAASALFWSAFEQKPTTFTLFAQDYTDRIVFGFEIPTVWFESINALFIIIFAPVAAWLWAKLGKANKDPSYISKFIIALLFAAGGFLLMSLASHFAIHGGVVSPFWLVGTLFLLTIGELCLSPIGLSTMTKLAPDVIRSQIMGLWFTGTALGNLMAGLIGGQVSADGINHLPSLFMRCVLALVIGAIVLFLLKKPMNKLMDKSTNKVQPDLETI | failed |
| MEQWDHFHNQQEDTDSCSESVKFDARSMTALLPPNPKNSPSLQEKLKSFKAALIALYLLVFAVLIPLIGIVAAQLLKWETKNCSVSSTNANDITQSLTGKGNDSEEEMRFQEVFMEHMSNMEKRIQHILDMEANLMDTEHFQNFSMTTDQRFNDILLQLSTLFSSVQGHGNAIDEISKSLISLNTTLLDLQLNIENLNGKIQENTFKQQEEISKLEERVYNVSAEIMAMKEEQVHLEQEIKGEVKVLNNITNDLRLKDWEHSQTLRNITLIQGPPGPPGEKGDRGPTGESGPRGFPGPIGPPGLKGDRGAIGFPGSRGLPGYAGRPGNSGPKGQKGEKGSGNTLTPFTKVRLVGGSGPHEGRVEILHSGQWGTICDDRWEVRVGQVVCRSLGYPGVQAVHKAAHFGQGTGPIWLNEVFCFGRESSIEECKIRQWGTRACSHSEDAGVTCTL | failed |
| MDTTAVLLKGPKDLDVDTLQLHVPGDGDLVVEIEHSGISTGTEKLFWSGEMPPFPGMGYPLVPGYEAVGEVVEADRATGFKVGERVFVPGANCYDGAFGLFGGAASRVVTASDRVTRIDAGHGASGALLALAATARHSMAGLNKSVPDLIVGHGVLGRLLARLTIAAGAPAPMVWEIDESRRKGAQGYEVIAPEDDPRRDYTSVYDASGSVEVLNDLVGRLAKGGEIVLAGFYTTAISFAFPPAFMKEARFRVAAEWTHDDLAATRALVEGGSLSLENLITHQASHLNARAAYAQAFTDPDCLKMILNWKDVA | failed |
| MLMKVAEFERLFRQAAGLDVDKNDLKRVSDFLRNKLYDLLAVAERNAKYNGRDLIFEPDLPIAKGLQETLQEFRRMDTALELKPVLDALAALPPLDLEVAEDVRNLLPELAGALVVAYARVLKELDPALKNPQTEHHERAERVFNLLL | not failed |
| MLFIKPADLREIVTFPLFSDLVQCGFPSPAADYVEQRIDLNQLLIQHPSATYFVKASGDSMIDGGISDGDLLIVDSAITASHGDIVIAAVDGEFTVKKLQLRPTVQLIPMNSAYSPITISSEDTLDVFGVVIHVVKAMR | failed |
| MIEEERNNYSVFHGLWTLASRELKKWYKAPVILLLSLIQPIFWIGIFGKAMNLGSIFTETTFNIPGLTIPKQVLDQIGLEILKQTFGTTDYFSFLAAGMLSFIVLFTSMQSGMSIVWDRRLGVLDRILTTPVPRGNIIIGKVLSAVIRSLVQATIVLVVAVLLGMTFAPEINPLDFLGVYAALFLMSFGLSSLFLMLALRATSWESQMAIMNLLNLPLLFTSNAFYPVKSMPYWLKPVAYINPLTYSNGVARGMLLGISTNLAIDFLYLGLFAIILSTIGIVLSWKYLSK | failed |
| MGLIDRYLAREILLPFAAALLFLTQILLATQILGQADVLFGSGVSLVDVGLVMLSLMPHLLGYVIPVAFLLGVVLGVGRLAEDREVVALGAAGLSPVRLVRVPLLLGLVVAALGAWLSLSVEPASIRAARLRLNDVVKRNVTNDVRGGTFYDQIPGYTIYTERARGGRWENVLIQDRSNPDAPMLALSRRGRLEPVGAGQDMRLVLEQGEVHREEVGTADYASAAFGKAELLVGLGTALSDRNVLAKSSREATVSDLRARAAAAREKGDVVEERRQEGYLHRKLSAPLVVVAFALLGVPLGAERRGGRAFGMGATFLLVVVHYLLLRGGEVLTQLGHLPAAFALQLPNLVLGAAGVALVLLMARRGPEAVR | failed |
| MLASVRVNQLQRLLLSARRLSSSPIIPPSRLLHQRLFSTSDTDASAASFSSSHPKIQTLEGKASNKSRSTSSTTSLNEDELAKFSAIADTWWHSEGPFKPLHQMNPTRLAFIRSTLCRHFSKDPSSAKPFEGLKFIDIGCGGGLLSEPLARMGATVTGVDAVDKNVKIARLHADMDPVTSTIEYLCTTAEKLADEGRKFDAVLSLEVIEHVANPAEFCKSLSALTIPNGATVLSTINRTMRAYASTIVGAEYILRWLPKGTHQWSSFVTPEEMSMILQRASVDVKEIAGFVYNPITGRWLLSDDISVNYIAYGTKRKDLGDI | failed |
| MQVTLIQGLLIGLFALIAGIDFWLEGLYIFRPMIVCTVTGAILGNLTLGIIAGGLTELAFAGLTPVGGTQPPNPIMAGIMTVVLAYTTGKTPSTAIGLALPFSILMQYIILFYYSAFSVLTKKLDAYAANVETKKFTRLALLPTVLVALTYGVIAFLCVYGAQEPMKALVNSMPVWLSHGFEIAGNILPAVGFGLLLKSMLKAEYVPYLLLGFTAACFIKFGNLMPVAVIGISLAFIEFYHNKKQTDNEKKLKSMIESASGNGDDGDGI | failed |
| MDTIRSIFIIWKDDRMSFLNNSIIYHIAIILYACSISLYFIDYFQSNRKANRFAFWLLSIVWVLHSIFMLLRATDSETNPLLTLLSGIYFYVWLLITMSLVINRFMRIDFLVFFTNVVAFGVSAFSIFTPLGKMSPVLAEQLVSELVYVHVGMAIISYATFTVSFIFSIMYLLQYRLLKKKKWNARLRRLGNLPKLESMSYGLNLFSVPFFLLAILLGCIWGYTKLDNFHWYDTKVIGSFVVLFVYCAGLYLRAADVLQGKKIVQWNIGAFLVMLINIFLLSSLSNFHFWYL | failed |
| MNRSFNIIISFKFIFWNMKSKPMNVIFDVLNEIHGFFGALWAGAALLNFLIKPQDKRQFERIGRFFLITSIITIITGIIIFAYIYLAPYQGNLFLVAAILRSSLDIRIRAFLNLIGGAFGLLAFGAGIVISNRIRLMVRVKEGDVTILELRNSVSNLSKISLVFLLISLAMMILAGSIAQVIT | failed |
| MDEFDYVRRKLIERILHLTEKQPVVRPLPGLTVGRRESPTEPSTYILPPSICIAVQGAKRVLIGEEYYVYDVENFLLNSFDVPVVAQVIEASKEKPYIGMTWEIDMEILMEIVVEQKLNTRPITSSRGTSLGKVTHQLLDAFRRMLELLDEPEHISALLPVIKKEIIYRLLVSEQGPRL | failed |
| MRTILFKSVPFSKEAVTLALESGVDGIIVPEKHVAPVQALARCKVLCDDAVCTLELTAKADEEEAASRLAAGEDVVLARGWEIIPVENLLARSDRVTVEVASLDEARLAAGILERGVSTVVVLPQAVTELKAIVQELKLSQGRIDLAPAVVTAVRPVGLGHRVCVDTMSLLRTGQGMLVGNSSAFTFLVNAETEHNEYVAARPFRINAGAVHAYAVMPGDRTTYLEELRSGSEVLIVGADGATTIATVGRLKVEVRPMLLVEARVGDTVGAVFLQNAETIRLVRADGTPVSVVALREGDEVLCRTDVAGRHFGMRITEDIREA | failed |
| MGRKRKHSETEAPAPVKKSDEPAPDRPKRTLLGWKDKSEGEAEKAKALTSSGFKNKEKVLVTCSRRISFRYRSLMLNIVSLLPHCKKDSKVEAKSSKGATLNELIELKNSNSCLFFECRKHKDLYMWMVKSPNGPSVKFLVKAVHAMEEMKLTGNHLKGSRPLLTFSSNFDKDAHWKLLKEMLTQVFGIPKEHRKSKPYHDHVFVFSIVDEHIWFRNYQISVPHNESDKIAKGGLDKMTLIEVGPRFCLNPIKIFAGSFGGPTLYENPLYVSPNQIRALEKRNKAGKFAKKIKAKTRKKMHELSNPLEPDEFADMWKDDE | failed |
| MKPARAQGSIMLLVDVYLDKSPIQGIGVFAKHHIPMGTLIWKLDPRFDRIIDVETYEGESGPVKNYLDRYSYPDRRDPAYIVFEADDARYMNHDDEPNCDVSSPEETYALRDIAPGEELTCNYNHFFEAGFDFLGDRHL | failed |
| MGPKRRQLTFREKSRIIQEVEENPDLRKGEIARRFNIPPSTLSTILKNKRAILASERKYGVASTCRKTNKLSPYDKLEGLLIAWFQQIRAAGLPVKGIILKEKALRIAEELGMDDFTASNGWLDRFRRRRS | not failed |
| MEYNRNFFIAIGLSFGVLIAWHFFYVAPKQTELQQKQLIAQQLLKQQSAVSSPTANFSDSASTHESALIINHPMSPEIRDAELAKTNRVAIKTNELEGSINLVGAQFDDLLLKKYRLTVDKKSSEIALLNPKGFKETYLAEFGFTSSSLSKDALPQSDTRWHIEGNNTTLTPSTPVTLIYNNGQGQTFRRILSIDDHYMFTIEDSITNESDKPIYLSSYARVARAAPPEHTNATYLLHEGMIGIAGDSLKTEKYKTLAELNPNPDNGQKSMTFSKVIGGWVGITDKYWAVAVIPPQDKEYTSRFIYFDRLQTHYQSDLLGSLLTVAPNETKTITNRLFAGAKQVEIINHYQNDLKIKKFALLIDWGWFDFITKPMFSLIDILYKQTGNFGIAILLVTVLLKTLLFPLANKSYKSMARMKLIQPMLLEIKEKYPEDRTKQQQAIIELYKTQKINPLAGCWPMLVQFPIFFALYKVLYITIEMRHAPFFGWIQDLAAPDPTSLFNLFGLLPYTVPAFLMLGAWPLIMGITMFLQMRMNPAPQDQTQAMIFAWMPIVFTFMLASFPVGLVIYWAWNNILSMIQQGIMMKRQGVKIELFDNLKAMWRKSPKKEAHE | failed |
| MSENEPAQMIEGRYRIVRNIAEGGMATVYEAIDERLGRTVAIKVMHTQLAKGPHREQFVERFRREANSAASIANPHIVQVYDTGEFNGLDFLVMEYVHGVNLRHEMNAQGTFSVRETLRVVAETLDGLASAHRAGVVHRDIKPENILINDRGHVQITDFGLAKAASQATLSSTGMLLGTAAYLAPEMIENNQATAQGDLYSVGIMAWEMLTGKVPFDSDNPVTLVFKHVHEDVPSVATVCQGIDPSVAAFIAHLTARQVDVRPTDGAAAAEELSQLAAKLPLEAWQYRLHAEPIGGDHTDATAAALVGNIAEQAPLTGVPAGAATFEPSVPAFLADDVASNTADTGGAADVNPPAPPVAPTTALDSSTPADASAPHKTQIMAQSGSETQVLPQAGDAFTRAPALSDEPDVASNGTGPKKQRSKNRFIVLVIVLVLAAIGGTAGWWWFAGPGSYWSVPKPDDVTCDANAGTECSLTGADWATYESTLKAFGIPYKTHEEYSDDVAEGKIISSSVNKTKAVVNSHISKRANQELTVVVSKGVRMATIPKDILDANSANGKNPLNALKKAGFDNVKHDESKDEYSMDTPQGVALTISPDPGTTAKHNDEVTITLSKGPMPVTMPDIVGKTQYEMQAALGELKLTANVTEQYDDKVEAGQVISASQEAGAQLKWGDSVDVVISKGPEMATIPSGLVGKQESAVTKTLESLGFKVKADKVLGGLFGTVRTVKSGDTDLSNGGKTRLRDANGNPTVITLTIV | failed |
